Paper PMC4570271, “Resolution of structure of PIP5K1A reveals molecular mechanism for its regulation by dimerization and dishevelled” (Nature Communications, 2015)
Values belong to the binder of their own block, whether it stands above or below them.

Experiments:
[1] = target: T1, GST-tagged DIX domain of mouse DVL1 (residues 1-106) with Y17D (mouse, UniProt P51141 1-106, Y17D); test: pull-down; GST-DIX (or GST) 0.5 μg and His-tagged PIP5K1 0.5 μg in 200 μl of 10 mM HEPES (pH 7.4), 150 mM NaCl, 0.2% Triton, 0.01% SDS, 3 mM dithiothreitol, 10% glycerol; 4 °C overnight; glutathione beads; western blotting; settings: both partners purified
T1 construct: DIX domain of mouse DVL1, residues 1-106, Y17D to eliminate DIX aggregation; A longer construct 1-200 (DIX-L) is named in the methods but tied to no experiment; also called DVL DIX; GST-DVL; source: E. coli, purified (glutathione-agarose beads, size-exclusion chromatography)
T1 sequence (looked up): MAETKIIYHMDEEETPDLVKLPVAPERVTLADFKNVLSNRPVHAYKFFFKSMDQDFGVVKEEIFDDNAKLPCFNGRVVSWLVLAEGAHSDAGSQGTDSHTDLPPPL

Dix109 = target: T2, Dix109; test: ITC; settings: chain shown with the change;
T2 chain: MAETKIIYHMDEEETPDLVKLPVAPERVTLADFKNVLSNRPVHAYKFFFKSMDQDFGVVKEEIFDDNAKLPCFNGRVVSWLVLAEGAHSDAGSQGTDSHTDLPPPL

[2] = target: T1, GST-tagged DIX domain of mouse DVL1 …; test: cell-based or functional assay

B1: zebrafish PIP5K1A kinase catalytic domain, D276A mutant (domain or fragment)
chain: MASTGETTYKKTTSSALKGAIQLGITHSVGSLSQKPERDVLMQDFEVVESIFFPSQGSSSTPGHHHGDFKFKTYAPIAFRYFREMFGIRPDDYLYSLCNEPLIELSNPGASGSLFYVSSDDEFIIKTVQHKEAEFLQTLLPGYFMNLNQNMRTLLPKFYGLYCVQADGKNIRIVVMNNLLPRAVPMHLKFDLKGSTYKRRASPKERSKGVPTYKDLDFMQDMPEGILLENAHYTALSRTMQRDCRVLQSFKIMDYSLLVGIHILHRAGEEASTAVPDTQKKGQGQKPLYCTAIESIQGESKSKTSPQPYESMGGIPAFNSKGERLLVFIGIIDILQSYRLVKKLEHSWKALLHDGDTVSVHRPSFYADRFQKFMCSTVFRKSQLKTLE
notes: kinase catalytic domain of zebrafish PIP5K1Aα, residues 49-431; C-terminal 'Leu-Glu' that precedes the His6 tag; source: E. coli BL21-CodonPlus(DE3)-RIL, purified in the same way as the wild-type protein; not shown: His6, C-terminal, kept
reduction of the interaction against the wild type [1]: > 70%

B2: zebrafish PIP5K1A kinase catalytic domain, L150A mutant (domain or fragment)
chain: MASTGETTYKKTTSSALKGAIQLGITHSVGSLSQKPERDVLMQDFEVVESIFFPSQGSSSTPGHHHGDFKFKTYAPIAFRYFREMFGIRPDDYLYSLCNEPLIEASNPGASGSLFYVSSDDEFIIKTVQHKEAEFLQTLLPGYFMNLNQNMRTLLPKFYGLYCVQADGKNIRIVVMNNLLPRAVPMHLKFDLKGSTYKRRASPKERSKGVPTYKDLDFMQDMPEGILLENDHYTALSRTMQRDCRVLQSFKIMDYSLLVGIHILHRAGEEASTAVPDTQKKGQGQKPLYCTAIESIQGESKSKTSPQPYESMGGIPAFNSKGERLLVFIGIIDILQSYRLVKKLEHSWKALLHDGDTVSVHRPSFYADRFQKFMCSTVFRKSQLKTLE
notes: kinase catalytic domain of zebrafish PIP5K1Aα, residues 49-431; C-terminal 'Leu-Glu' that precedes the His6 tag; also called Leu-150 to Ala; source: E. coli BL21-CodonPlus(DE3)-RIL, purified in the same way as the wild-type protein; not shown: His6, C-terminal, kept
change in the interaction against the wild type [1]: ≤ 20%

B4: zebrafish PIP5K1A kinase catalytic domain, triple D84R/L86A/V291A (DLV) mutant (domain or fragment)
chain: MASTGETTYKKTTSSALKGAIQLGITHSVGSLSQKPERRVAMQDFEVVESIFFPSQGSSSTPGHHHGDFKFKTYAPIAFRYFREMFGIRPDDYLYSLCNEPLIELSNPGASGSLFYVSSDDEFIIKTVQHKEAEFLQTLLPGYFMNLNQNMRTLLPKFYGLYCVQADGKNIRIVVMNNLLPRAVPMHLKFDLKGSTYKRRASPKERSKGVPTYKDLDFMQDMPEGILLENDHYTALSRTMQRDCRALQSFKIMDYSLLVGIHILHRAGEEASTAVPDTQKKGQGQKPLYCTAIESIQGESKSKTSPQPYESMGGIPAFNSKGERLLVFIGIIDILQSYRLVKKLEHSWKALLHDGDTVSVHRPSFYADRFQKFMCSTVFRKSQLKTLE
Kd (Dix109; parent: 1.2 µM): 800 nM | other: N (Dix109; parent: 1.01 ± 0.09): 0.98 | other: -TΔS (Dix109; parent: 120 ± 16 KJ mol-1): 53.8 kcal/mol | dG (Dix109; parent: -31.0 ± 3.5 KJ mol-1): -8.32 kcal/mol | other: ΔH (Dix109; parent: -151 ± 19 KJ mol-1): -62.1 kcal/mol | fold activation of the lipid kinase activity by DIX [2]: > 30 fold

B7: zebrafish PIP5K1A kinase catalytic domain, E167A mutant (domain or fragment)
chain: MASTGETTYKKTTSSALKGAIQLGITHSVGSLSQKPERDVLMQDFEVVESIFFPSQGSSSTPGHHHGDFKFKTYAPIAFRYFREMFGIRPDDYLYSLCNEPLIELSNPGASGSLFYVSSDDAFIIKTVQHKEAEFLQTLLPGYFMNLNQNMRTLLPKFYGLYCVQADGKNIRIVVMNNLLPRAVPMHLKFDLKGSTYKRRASPKERSKGVPTYKDLDFMQDMPEGILLENDHYTALSRTMQRDCRVLQSFKIMDYSLLVGIHILHRAGEEASTAVPDTQKKGQGQKPLYCTAIESIQGESKSKTSPQPYESMGGIPAFNSKGERLLVFIGIIDILQSYRLVKKLEHSWKALLHDGDTVSVHRPSFYADRFQKFMCSTVFRKSQLKTLE
notes: as for B1
change in the interaction against the wild type [1]: ≤ 20%

B9: zebrafish PIP5K1A kinase catalytic domain, F131A mutant (domain or fragment)
chain: MASTGETTYKKTTSSALKGAIQLGITHSVGSLSQKPERDVLMQDFEVVESIFFPSQGSSSTPGHHHGDFKFKTYAPIAFRYFREMAGIRPDDYLYSLCNEPLIELSNPGASGSLFYVSSDDEFIIKTVQHKEAEFLQTLLPGYFMNLNQNMRTLLPKFYGLYCVQADGKNIRIVVMNNLLPRAVPMHLKFDLKGSTYKRRASPKERSKGVPTYKDLDFMQDMPEGILLENDHYTALSRTMQRDCRVLQSFKIMDYSLLVGIHILHRAGEEASTAVPDTQKKGQGQKPLYCTAIESIQGESKSKTSPQPYESMGGIPAFNSKGERLLVFIGIIDILQSYRLVKKLEHSWKALLHDGDTVSVHRPSFYADRFQKFMCSTVFRKSQLKTLE
notes: as for B1
change in the interaction against the wild type [1]: ≤ 20%

B10: zebrafish PIP5K1A kinase catalytic domain, E149A mutant (domain or fragment)
chain: MASTGETTYKKTTSSALKGAIQLGITHSVGSLSQKPERDVLMQDFEVVESIFFPSQGSSSTPGHHHGDFKFKTYAPIAFRYFREMFGIRPDDYLYSLCNEPLIALSNPGASGSLFYVSSDDEFIIKTVQHKEAEFLQTLLPGYFMNLNQNMRTLLPKFYGLYCVQADGKNIRIVVMNNLLPRAVPMHLKFDLKGSTYKRRASPKERSKGVPTYKDLDFMQDMPEGILLENDHYTALSRTMQRDCRVLQSFKIMDYSLLVGIHILHRAGEEASTAVPDTQKKGQGQKPLYCTAIESIQGESKSKTSPQPYESMGGIPAFNSKGERLLVFIGIIDILQSYRLVKKLEHSWKALLHDGDTVSVHRPSFYADRFQKFMCSTVFRKSQLKTLE
notes: as for B1
change in the interaction against the wild type [1]: ≤ 20%

B12: zebrafish PIP5K1A kinase catalytic domain, K426A mutant (domain or fragment)
chain: MASTGETTYKKTTSSALKGAIQLGITHSVGSLSQKPERDVLMQDFEVVESIFFPSQGSSSTPGHHHGDFKFKTYAPIAFRYFREMFGIRPDDYLYSLCNEPLIELSNPGASGSLFYVSSDDEFIIKTVQHKEAEFLQTLLPGYFMNLNQNMRTLLPKFYGLYCVQADGKNIRIVVMNNLLPRAVPMHLKFDLKGSTYKRRASPKERSKGVPTYKDLDFMQDMPEGILLENDHYTALSRTMQRDCRVLQSFKIMDYSLLVGIHILHRAGEEASTAVPDTQKKGQGQKPLYCTAIESIQGESKSKTSPQPYESMGGIPAFNSKGERLLVFIGIIDILQSYRLVKKLEHSWKALLHDGDTVSVHRPSFYADRFQKFMCSTVFRASQLKTLE
notes: as for B1
change in the interaction against the wild type [1]: ≤ 20%

Continued, values first:

reduction of the interaction against the wild type [1]: > 70%
B3: zebrafish PIP5K1A kinase catalytic domain, S78A mutant (domain or fragment)
chain: MASTGETTYKKTTSSALKGAIQLGITHSVGSLAQKPERDVLMQDFEVVESIFFPSQGSSSTPGHHHGDFKFKTYAPIAFRYFREMFGIRPDDYLYSLCNEPLIELSNPGASGSLFYVSSDDEFIIKTVQHKEAEFLQTLLPGYFMNLNQNMRTLLPKFYGLYCVQADGKNIRIVVMNNLLPRAVPMHLKFDLKGSTYKRRASPKERSKGVPTYKDLDFMQDMPEGILLENDHYTALSRTMQRDCRVLQSFKIMDYSLLVGIHILHRAGEEASTAVPDTQKKGQGQKPLYCTAIESIQGESKSKTSPQPYESMGGIPAFNSKGERLLVFIGIIDILQSYRLVKKLEHSWKALLHDGDTVSVHRPSFYADRFQKFMCSTVFRKSQLKTLE
notes: as for B1

change in the interaction against the wild type [1]: ≤ 20%
B5: zebrafish PIP5K1A kinase catalytic domain, E82A mutant (domain or fragment)
chain: MASTGETTYKKTTSSALKGAIQLGITHSVGSLSQKPARDVLMQDFEVVESIFFPSQGSSSTPGHHHGDFKFKTYAPIAFRYFREMFGIRPDDYLYSLCNEPLIELSNPGASGSLFYVSSDDEFIIKTVQHKEAEFLQTLLPGYFMNLNQNMRTLLPKFYGLYCVQADGKNIRIVVMNNLLPRAVPMHLKFDLKGSTYKRRASPKERSKGVPTYKDLDFMQDMPEGILLENDHYTALSRTMQRDCRVLQSFKIMDYSLLVGIHILHRAGEEASTAVPDTQKKGQGQKPLYCTAIESIQGESKSKTSPQPYESMGGIPAFNSKGERLLVFIGIIDILQSYRLVKKLEHSWKALLHDGDTVSVHRPSFYADRFQKFMCSTVFRKSQLKTLE
notes: as for B1

change in the interaction against the wild type [1]: ≤ 20%
B6: zebrafish PIP5K1A kinase catalytic domain, Y140A mutant (domain or fragment)
chain: MASTGETTYKKTTSSALKGAIQLGITHSVGSLSQKPERDVLMQDFEVVESIFFPSQGSSSTPGHHHGDFKFKTYAPIAFRYFREMFGIRPDDYLASLCNEPLIELSNPGASGSLFYVSSDDEFIIKTVQHKEAEFLQTLLPGYFMNLNQNMRTLLPKFYGLYCVQADGKNIRIVVMNNLLPRAVPMHLKFDLKGSTYKRRASPKERSKGVPTYKDLDFMQDMPEGILLENDHYTALSRTMQRDCRVLQSFKIMDYSLLVGIHILHRAGEEASTAVPDTQKKGQGQKPLYCTAIESIQGESKSKTSPQPYESMGGIPAFNSKGERLLVFIGIIDILQSYRLVKKLEHSWKALLHDGDTVSVHRPSFYADRFQKFMCSTVFRKSQLKTLE
notes: kinase catalytic domain of zebrafish PIP5K1Aα, residues 49-431; the residue is printed 'Try-140' in the results and Y140A later; C-terminal 'Leu-Glu' that precedes the His6 tag; also called Try-140 to Ala; source: E. coli BL21-CodonPlus(DE3)-RIL, purified in the same way as the wild-type protein; not shown: His6, C-terminal, kept

reduction of the interaction against the wild type [1]: > 70%
B8: zebrafish PIP5K1A kinase catalytic domain, Y126A mutant (domain or fragment)
chain: MASTGETTYKKTTSSALKGAIQLGITHSVGSLSQKPERDVLMQDFEVVESIFFPSQGSSSTPGHHHGDFKFKTYAPIAFRAFREMFGIRPDDYLYSLCNEPLIELSNPGASGSLFYVSSDDEFIIKTVQHKEAEFLQTLLPGYFMNLNQNMRTLLPKFYGLYCVQADGKNIRIVVMNNLLPRAVPMHLKFDLKGSTYKRRASPKERSKGVPTYKDLDFMQDMPEGILLENDHYTALSRTMQRDCRVLQSFKIMDYSLLVGIHILHRAGEEASTAVPDTQKKGQGQKPLYCTAIESIQGESKSKTSPQPYESMGGIPAFNSKGERLLVFIGIIDILQSYRLVKKLEHSWKALLHDGDTVSVHRPSFYADRFQKFMCSTVFRKSQLKTLE
notes: as for B1

change in the interaction against the wild type [1]: ≤ 20%
B11: zebrafish PIP5K1A kinase catalytic domain, Q194A mutant (domain or fragment)
chain: MASTGETTYKKTTSSALKGAIQLGITHSVGSLSQKPERDVLMQDFEVVESIFFPSQGSSSTPGHHHGDFKFKTYAPIAFRYFREMFGIRPDDYLYSLCNEPLIELSNPGASGSLFYVSSDDEFIIKTVQHKEAEFLQTLLPGYFMNLNANMRTLLPKFYGLYCVQADGKNIRIVVMNNLLPRAVPMHLKFDLKGSTYKRRASPKERSKGVPTYKDLDFMQDMPEGILLENDHYTALSRTMQRDCRVLQSFKIMDYSLLVGIHILHRAGEEASTAVPDTQKKGQGQKPLYCTAIESIQGESKSKTSPQPYESMGGIPAFNSKGERLLVFIGIIDILQSYRLVKKLEHSWKALLHDGDTVSVHRPSFYADRFQKFMCSTVFRKSQLKTLE
notes: kinase catalytic domain of zebrafish PIP5K1Aα, residues 49-431; C-terminal 'Leu-Glu' that precedes the His6 tag; also called Q194 mutant; source: E. coli BL21-CodonPlus(DE3)-RIL, purified in the same way as the wild-type protein; not shown: His6, C-terminal, kept
